From patent US20080107600A1 (published 2008)

What was measured:
[1] = target: T1, DISC1-FLAG (full-length human DISC1 with a C-terminal FLAG tag) (human, UniProt Q9NRI5 1-854); assay: anti-FLAG immunoprecipitation from stable PC12 cells with or without NGF (50 ng/ml, 24 hours), blot with anti-FEZ1
T1 construct: also called FLAG-tagged DISC1
T1 sequence: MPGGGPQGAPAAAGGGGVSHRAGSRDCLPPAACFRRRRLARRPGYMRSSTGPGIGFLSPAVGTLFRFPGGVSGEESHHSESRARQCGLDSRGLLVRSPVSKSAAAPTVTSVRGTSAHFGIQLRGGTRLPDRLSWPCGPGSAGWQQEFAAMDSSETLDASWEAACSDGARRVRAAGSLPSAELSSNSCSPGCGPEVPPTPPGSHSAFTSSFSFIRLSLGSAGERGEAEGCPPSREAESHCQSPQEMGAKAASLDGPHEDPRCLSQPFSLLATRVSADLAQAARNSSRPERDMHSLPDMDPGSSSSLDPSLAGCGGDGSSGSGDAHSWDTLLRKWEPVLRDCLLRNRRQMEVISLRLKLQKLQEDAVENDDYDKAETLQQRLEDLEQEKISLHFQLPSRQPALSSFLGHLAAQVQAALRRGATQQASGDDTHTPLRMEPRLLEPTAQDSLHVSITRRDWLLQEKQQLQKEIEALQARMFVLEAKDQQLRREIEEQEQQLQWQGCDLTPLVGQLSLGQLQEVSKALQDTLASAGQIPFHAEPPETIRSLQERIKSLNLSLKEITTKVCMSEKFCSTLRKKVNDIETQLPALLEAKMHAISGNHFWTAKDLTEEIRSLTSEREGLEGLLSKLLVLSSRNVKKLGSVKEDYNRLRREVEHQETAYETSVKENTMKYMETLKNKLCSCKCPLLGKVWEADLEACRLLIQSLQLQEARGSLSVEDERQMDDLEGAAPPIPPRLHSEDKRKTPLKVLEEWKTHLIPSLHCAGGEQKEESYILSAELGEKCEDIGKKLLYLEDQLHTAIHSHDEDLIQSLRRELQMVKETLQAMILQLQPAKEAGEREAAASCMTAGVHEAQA
Method: Stably DISC1-FLAG-expressing PC12 cells were stimulated with a nerve growth factor (NGF) (50 ng/ml) for 24 hours and collected. Lysates were immunoprecipitated by anti-FLAG antibody. Immunoprecipitated complexes were subjected to SDS-PAGE and blotted with anti-FEZ1 antibody. […] Cells were either unstimulated (b, e, h, k) or stimulated with NGF (50 ng/ml) for 24 hours (c, f, 1,1), and 48 hours (d, g, J, m) and their neurites were subsequently microscopically observed.
(§1) HEK293T cells were transfected with DISC1-FLAG and FEZ1-HA, individually or in combination. FLAG-tagged truncated forms of DISC1 mentioned in the Plasmids section were also transfected in combination with FEZ-HA. Cells were lysed in TNE buffer/1% NP40. Prepared lysates were incubated with anti-FLAG antibody for 2 hours at 4° C. and then with Protein Gagarose (Invitrogen) for 1 hour at 4° C. The agarose beads were then washed five times with TNE buffer. Immunoprecipitates were subjected to SDS-PAGE and blotted with anti-HA antibody. Conversely, immunoprecipitates with anti-HA antibody were blotted with anti-FLAG antibody. PC12 cells were transfected with FEZ1-HA or mock and then lysed in TNE buffer/1% NP40. Lysates were immunoprecipitated by anti-HA antibody. Immunoprecipitates were subjected to SDS-PAGE and blotted with anti-actin antibody. […]

[2] = target: T2, DISC1/ΔBR-FLAG (deleted DISC1 that lacks the FEZ1-binding region, FLAG-tagged) (human, UniProt Q9NRI5 1-854); assay: co-immunoprecipitation from transfected HEK293T cells, anti-FLAG / anti-HA
T2 sequence: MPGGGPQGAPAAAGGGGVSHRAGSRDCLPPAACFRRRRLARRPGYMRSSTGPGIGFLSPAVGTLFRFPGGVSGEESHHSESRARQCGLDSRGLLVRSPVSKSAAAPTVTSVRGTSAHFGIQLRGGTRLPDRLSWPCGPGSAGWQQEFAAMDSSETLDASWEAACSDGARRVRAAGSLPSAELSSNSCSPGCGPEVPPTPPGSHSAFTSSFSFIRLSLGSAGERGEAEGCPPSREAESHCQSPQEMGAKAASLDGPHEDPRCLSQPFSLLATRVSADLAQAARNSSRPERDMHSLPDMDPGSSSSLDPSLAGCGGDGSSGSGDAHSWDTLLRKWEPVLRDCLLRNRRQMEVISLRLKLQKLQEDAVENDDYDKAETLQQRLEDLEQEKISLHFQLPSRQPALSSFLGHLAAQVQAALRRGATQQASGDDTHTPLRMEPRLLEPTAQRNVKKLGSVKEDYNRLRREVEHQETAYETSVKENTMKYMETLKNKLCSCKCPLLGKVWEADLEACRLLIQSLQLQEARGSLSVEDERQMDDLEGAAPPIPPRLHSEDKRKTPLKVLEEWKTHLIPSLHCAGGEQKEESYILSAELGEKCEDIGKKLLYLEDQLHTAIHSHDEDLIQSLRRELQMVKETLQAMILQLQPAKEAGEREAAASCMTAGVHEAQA
Method: (a) Yeast two-hybrid assay to determine the binding regions of FEZ1 (upper panel) and DISC1 (lower panel). Open bars indicate the FEZ1 clone obtained by the screening and DISC1 clone used as bait. Closed bars indicate shorter fragments. […] The α-galactosidase activity of yeast transformants were assayed. +++ indicates strongly positive as a positive control. ++, + and − indicate moderately positive, weakly positive and negative, respectively. (b) DISC1 coimmunoprecipitated with FEZ1. HEK293T cells were transfected with DISC1-FLAG and FEZ1-HA, individually or in combination. […] Immunoprecipitates by anti-FLAG or anti-HA antibody were blotted with the reciprocal antibody.
as §1, with “NP40.” for “NP40. Lysates were immunoprecipitated by anti-HA antibody. Immunoprecipitates were subjected to SDS-PAGE and blotted with anti-actin antibody.”

Binder | binding result [1] | binding result [2]
endogenous FEZ1 of PC12 cells (other, rat, UniProt P97577 1-393, looked up) MEAPLVSLDEEFEDIRPCCTEDPEEKPQSLYGTSPHHLEDPSLSELENFSSEIISFKSMEDLVNEFDEKLNVCFRNYNAKTENLAPVKNQLQIQEEEETLRDEEVWDALTDNYIPSLSEDWRDPNIEALNGNSSDTEIHEKEEEDEFIEKSENDSGINEEPLLTADQVIEEIEEMMQNSPDPEEEVEVLEEEDGGEISSQADSVLLQEMQALTQTFNNNWSYEGLRHMSGSELTELLDQVEGAIRDFSEELVHQLARRDELEFEKEVKNSFITVLIEVQNKQKEQRELMKKRRKEKGLSLQSSRIEKGNQMPLKRFSMEGISNILQSGIRQTFGSSGADRQYLNTVIPYEKKSSPPSVEDLQMLTNILFAMKEDNEKVPTLLTDYILKVLCPT | binds | –
FEZ1-HA (human FEZ1 with a C-terminal HA tag) (other, not shown: small tags and cut ends, Expressed from pcDNA3.1(+) in HEK293T or PC12 cells; also called HA-tagged FEZ1; FEZ-HA) MEAPLVSLDEEFEDLRPSCSEDPEEKPQCFYGSSPHHLEDPSLSELENFSSEIISFKSMEDLVNEFDEKLNVCFRNYNAKTENLAPVKNQLQIQEEEETLQDEEVWDALTDNYIPSLSEDWRDPNIEALNGNCSDTEIHEKEEEEFNEKSENDSGINEEPLLTADQVIEEIEEMMQNSPDPEEEEEVLEEEDGGETSSQADSVLLQEMQALTQTFNNNWSYEGLRHMSGSELTELLDQVEGAIRDFSEELVQQLARRDELEFEKEVKNSFITVLIEVQNKQKEQRELMKKRRKEKGLSLQSSRIEKGNQMPLKRFSMEGISNILQSGIRQTFGSSGTDKQYLNTVIPYEKKASPPSVEDLQMLTNILFAMKEDNEKVPTLLTDYILKVLCPT | – | no binding
